Results: the DeepSol protein solubility set

Test: soluble on expression in E. coli; label from the status in PepcDB or PDB records

Sequence	soluble on expression in E. coli
MADVDELEDPMEEMTSYTFARFLRSPETEAFVRNLDRPPQMPAMRFVYLYCLCKQIQEFSGETGFCDFVSSLVQENDSKDGPSLKSIYWGLQEATDEQRTVLCSYVESMTRGQSENLMWDILRNGIISSSKLLSTIKNGPTKVFEPAPISTNHYFGGPVAFGLRCEDTVKDIVCKLICGDASANRQFGFMISPTDGIFGVSLDLCVNVESQGDFILFTDRSCIYEIKCRFKYLFSKSEFDPIYPSYTALYKRPCKRSFIRFINSIARPTVEYVPDGRLPSEGDYLLTQDEAWNLKDVRKRKLGPGHDLVADSLAANRGVESMLYVMTDPSENAGRIGIKDRVPVNIFINPRHNYFYQVLLQYKIVGDYVRHSGGGKPGRDCSPRVNIVTAFFRKRSPLDPATCTLGSDLLLDASVEIPVAVLVTPVVLPDSVIRKTLSTAAGSWKAYADNTFDTAPWVPSGLFADDESTP	soluble
MSLHPHAMPDMGPDMNKVPWMGDEQIAMLVYPGMTVMDLVGPHCMFGSLMGAKIYIVAKSLDPVTSDAGLAIVPTATFGTCPRDLTVLFAPGGTDGTLAAASDAETLAFMADRGARAKYITSVCSGSLILGAAGLLKGYKATSHWSCRDALAGFGAIPTEARVVRDRNRITGAGVTAGLDFGLSMVAELRDQTYAECAQLMSEYDPDPPFNAGSMKTAPAHVRTAMIELVAEFTKKADALAGFPKEGHHHHHH	soluble
VFLDFEKGIEEFEAKIEQLRFAQDNSALDISAEIARLQTKSLGLTKSVYAKLTPWQISQVARHPQRPYTLDYVQHLFTDFEELHGDRNFADDQAIVGGLARFNGQTVMIIGHQKGRDTKEKIHRNFGMPKPEGYRKALRLMRLAEKFSI	not soluble
VSIDSSRRIIQAIEQNEFHLYCQKIIPAGSNQESSSYYEVLIRMAEEESNLIPPGAFLPFVEKYNLMPRLDSWVVEQVIHYLADQRADPRISFCINLARSTLIDPVFYDRVWKLLNAAGIEPQRICFEIETADVAANLLSAVQFVKKVQQSGCLVSLCSFNHDRGSFDLLKHIQADFLKIDGSLICNILRDAEDLKKVENIGKFARALKIRTIGELVETRNILEKLAKIGIDYAQGFIVGRPLPIEKIEYRADSMDDL	not soluble
MMMKSLLMTPLSHRVLKLFCRQTDQRFQKQKNALQQVQREKLQQILKISTLAQAAGVTDYEQFRQQFPVTRYTHWRDRIHECRAQQSTLSNSKLVRYQPTSGSSEQIKFIPYTQAFLDELDAAIAPWLSSMYRKCSTLGQGTHYWSVSWLPESQREVLKNENLNDDSALLGVGKRLLSKFTQTVPSDVSFAAHADDALFATLCYLVADQDLAMISVWSPTFALQLLEKLTEQSHEIALVLETGQWQTRAASLKGVKAPYNSARASLLRQLMKKDTLDYQQLWPKLSLVSSWDTAGSKQWAQLLQSELPFAQFEGKGLWATEGVVTIPYDDLYPLAYHSHFYEFEYLAGEHQGDIIPSWQLKLNDLVSPVLTSGNGLLRYCLDDCLRVTGFYGQVPCFEFQGRRFGVDLVGEKLSPEVAHKLLTRLNQQHIQAISLFAVDTQQQAKPFYAVLVEGEATSPLSVDEIDQALREHFHYELARDLGQLDQPQIFYVDNGWEGYKQVVVREGMIEGNIKPEPLKKVTLSSLEQLSCAESV	not soluble
MCGRFAQSQTREDYLALLAEDIERDIPYDPEPIGRYNVAPGTKVLLLSERDEHLHLDPVFWGYAPGWWDKPPLINARVETAATSRMFKPLWQHGRAICFADGWFEWKKEGDKKQPFFIYRADGQPIFMAAIGSTPFERGDEAEGFLIVTAAADQGLVDIHDRRPLVLSPEAAREWMRQEISGKEASEIAASGCVPANQFSWHPVSRAVGNVKTRARSLEHHHHHH	not soluble
MAHHHHHHMSGRCFSKSLESDVDSAAAAESSLSATEVSTDGYRTGKQPRHVAFLLEKDLKETDTEEVPRAAFAGRRGGAGARPTEEQWSWSGRAEADALRQRALQCGEDFVRVASGLGYEVVAHTPTAFLKRGMTEKTAALFGVAQPEKQGGTGLAVARSATARASTGAVLLSSPSAAETTVTLAAPFSSGGSSVFPRKGELDSCSSRSSSPGTEDQVGMVPVLSPLLQGSEPGQRRLSTDASLRALEVQTPRTTGAHAGVYRYPATIASLHPLQDSTPNSVADGNGVHTSPHRSSRTGFGAEHHANDGANPPGPAIANSTRAVHWTPTTRHPSPSRGSPASHRALTPRTVFPTGNHPVTASLMVPGQQSDAFAVRLSIMDVTSSRTNSNTNTSMSTEHLNGHEFVNVGGSQNTNNRFFTSSTDALNTPAVRMTDDEDWLRATGRLIQ	not soluble
